Laboratory results published in article PMC8956632.

Target: 5-HT1AR-Rluc (UniProt P08908)
Assay: BRET
Conditions: HEK293 cells, basal (no agonist); parent: est. 0.27; read off a plot

Chain of 5-HT1AR-Rluc (P08908 whole entry): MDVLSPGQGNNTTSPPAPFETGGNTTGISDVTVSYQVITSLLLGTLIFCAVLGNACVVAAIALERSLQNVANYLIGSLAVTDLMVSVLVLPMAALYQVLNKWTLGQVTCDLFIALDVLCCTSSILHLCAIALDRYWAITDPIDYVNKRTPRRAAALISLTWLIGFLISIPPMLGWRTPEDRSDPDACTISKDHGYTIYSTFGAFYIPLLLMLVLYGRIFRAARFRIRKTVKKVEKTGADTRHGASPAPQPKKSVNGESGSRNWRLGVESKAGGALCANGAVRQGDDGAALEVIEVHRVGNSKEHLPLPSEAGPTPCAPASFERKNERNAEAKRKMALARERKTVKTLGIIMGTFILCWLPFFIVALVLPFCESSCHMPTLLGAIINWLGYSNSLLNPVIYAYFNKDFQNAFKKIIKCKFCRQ
Chain of OX1R-EGFP (O43613 whole entry, stated change not applied): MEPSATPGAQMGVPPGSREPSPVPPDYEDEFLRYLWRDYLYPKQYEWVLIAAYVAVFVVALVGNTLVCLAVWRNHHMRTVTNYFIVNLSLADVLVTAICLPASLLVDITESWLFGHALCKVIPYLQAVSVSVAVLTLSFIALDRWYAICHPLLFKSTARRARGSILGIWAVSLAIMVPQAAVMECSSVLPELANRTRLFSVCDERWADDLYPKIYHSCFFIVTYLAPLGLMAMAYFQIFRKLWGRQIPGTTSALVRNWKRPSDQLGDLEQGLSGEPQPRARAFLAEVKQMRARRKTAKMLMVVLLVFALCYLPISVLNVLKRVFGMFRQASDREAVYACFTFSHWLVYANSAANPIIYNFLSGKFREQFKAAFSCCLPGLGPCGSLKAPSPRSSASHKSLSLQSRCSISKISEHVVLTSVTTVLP

**Q.** With OX1R-EGFP (from UniProt O43613) L168A as the substance, how does the response read?
**A.** 0.27
